Assay [1] has as its target T1, Human GUCY2C full length (SEQ ID NO: 224), recombinant protein (human, UniProt P25092 24-430, limits assumed).
T1 construct: also called huGUCY2C; biotinylated human GUCY2c
As to the kind of experiment: SPR, IgG captured by anti-human Fc. Background: SPR reads the build-up and loss of mass on a sensor chip optically.

Assay [2] concerns the target T2, Purified human GUCY2c ECD (recombinant, construct not stated) (human, UniProt P25092 24-430).
T2 construct: also called recombinant human GUCY2c; recombinant GUCY2c protein
As to the kind of experiment: ELISA; column 'Direct huGUCY2C binding (nM)'.

For assay [3], the target named is Human GUCY2c on tumor cells (T84, HT55) (human, UniProt P25092 24-1073). Nature of the assay: cell-based or functional assay.
Assay [4] has as its target T2, Purified human GUCY2c ECD (recombinant, …). As to the kind of experiment: direct ELISA, coated GUCY2c ECD. (In general: An ELISA detects its analyte on a solid surface through an enzyme-linked reagent.)
Assay [5] concerns the target T1, Human GUCY2C full length (SEQ ID NO: …). As to the kind of experiment: SPR, anti-human IgG capture, 25 C.
The target in assay [6] is T3, Cynomolgus GUCY2C-ECD Cleaved (cynomolgus, UniProt P25092 24-430 (human entry)).
T3 construct: also called CyGUCY2C
T3 chain: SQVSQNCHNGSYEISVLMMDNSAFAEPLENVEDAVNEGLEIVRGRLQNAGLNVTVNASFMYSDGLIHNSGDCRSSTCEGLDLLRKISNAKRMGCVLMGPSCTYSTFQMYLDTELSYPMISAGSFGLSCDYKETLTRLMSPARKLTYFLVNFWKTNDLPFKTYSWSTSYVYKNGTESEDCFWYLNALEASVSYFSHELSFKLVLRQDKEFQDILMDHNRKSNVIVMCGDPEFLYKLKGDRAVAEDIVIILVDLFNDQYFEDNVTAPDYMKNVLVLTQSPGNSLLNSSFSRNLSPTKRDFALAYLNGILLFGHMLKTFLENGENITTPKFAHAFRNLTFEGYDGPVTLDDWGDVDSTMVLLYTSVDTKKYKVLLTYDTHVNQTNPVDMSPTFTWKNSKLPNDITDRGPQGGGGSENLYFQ
As to the kind of experiment: SPR, anti-human IgG capture, 25 C.

Assay [7] has as its target T4, Murine GUCY2C-ECD cleaved (mouse, UniProt Q3UWA6 20-433).
T4 sequence: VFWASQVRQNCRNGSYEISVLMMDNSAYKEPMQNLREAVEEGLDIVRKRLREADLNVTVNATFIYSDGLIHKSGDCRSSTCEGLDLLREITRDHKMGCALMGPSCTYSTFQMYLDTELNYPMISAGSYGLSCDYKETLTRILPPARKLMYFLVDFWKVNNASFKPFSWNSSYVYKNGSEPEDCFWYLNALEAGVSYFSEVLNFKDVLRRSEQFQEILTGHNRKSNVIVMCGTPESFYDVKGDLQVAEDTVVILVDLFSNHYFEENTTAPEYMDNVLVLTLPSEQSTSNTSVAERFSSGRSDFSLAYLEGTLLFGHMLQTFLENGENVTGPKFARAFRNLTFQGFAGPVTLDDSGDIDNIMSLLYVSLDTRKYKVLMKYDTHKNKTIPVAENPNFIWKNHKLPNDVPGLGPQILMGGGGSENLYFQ
Nature of the assay: SPR, anti-human IgG capture, 25 C.

In assay [8] the target is T5, Human CD3 epsilon-delta (human).
T5 construct: Single-chain epsilon-linker-delta with His6; also called huCD3
T5 chain: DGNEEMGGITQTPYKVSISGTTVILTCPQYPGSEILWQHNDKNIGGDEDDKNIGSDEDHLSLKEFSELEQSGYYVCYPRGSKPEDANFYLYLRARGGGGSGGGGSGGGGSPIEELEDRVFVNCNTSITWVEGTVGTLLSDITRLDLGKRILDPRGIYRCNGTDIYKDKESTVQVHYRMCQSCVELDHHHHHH
Nature of the assay: SPR, anti-human IgG capture, 25 C.

Assay [9] has as its target T5, Human CD3 epsilon-delta. Nature of the assay: SPR, CD3 captured by anti-His, 25 C.
Assay [10] has as its target T6, Cynomolgus CD3 epsilon-delta (cynomolgus).
T6 chain: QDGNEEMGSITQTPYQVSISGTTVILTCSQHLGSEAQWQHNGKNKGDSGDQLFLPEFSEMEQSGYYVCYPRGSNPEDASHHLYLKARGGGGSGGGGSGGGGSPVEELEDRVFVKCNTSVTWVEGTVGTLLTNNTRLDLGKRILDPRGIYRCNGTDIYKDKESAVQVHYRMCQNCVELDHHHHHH
As to the kind of experiment: SPR, CD3 captured by anti-His, 25 C.

For assay [11], the target named is T5, Human CD3 epsilon-delta. Nature of the assay: direct ELISA, coated CD3 epsilon-delta.
Assay [12] concerns the target T1, Human GUCY2C full length (SEQ ID NO: …). Nature of the assay: SPR, GUCY2c directly immobilized, 25 C.
Assay [13] shares this target. As to the kind of experiment: SPR, GUCY2c directly immobilized, 37 C.
In assay [14] the target is T3, Cynomolgus GUCY2C-ECD Cleaved. Nature of the assay: SPR, GUCY2c directly immobilized, 25 C.
The target is the same in assay [15]. Nature of the assay: SPR, GUCY2c directly immobilized, 37 C.
In assay [16] the target is T4, Murine GUCY2C-ECD cleaved. As to the kind of experiment: SPR, GUCY2c directly immobilized, 25 C.
The target in assay [17] is T4, Murine GUCY2C-ECD cleaved. As to the kind of experiment: SPR, GUCY2c directly immobilized, 37 C.
Assay [18] has as its target T6, Cynomolgus CD3 epsilon-delta. As to the kind of experiment: SPR, printed anti-His capture, 25 C (Table 33D).
Assay [19] deals with T5, Human CD3 epsilon-delta. Nature of the assay: SPR, CD3 captured by anti-His, printed 25 C (Table 33C).
Assay [20] concerns the target T6, Cynomolgus CD3 epsilon-delta. As to the kind of experiment: SPR, CD3 captured by anti-His, printed 25 C (Table 33F).
For assay [21], the target named is T7, Human GUCY2C ECD-muIgG2a (human).
T7 construct: also called human GUCY2c ECD-mouse IgG2a Fc fusion protein; huGUCY2c-mIgG2a
As to the kind of experiment: sandwich ELISA: CD3 epsilon-delta coated, GUCY2c ECD-mIgG2a Fc in solution.

Positions count from the first letter of the chain named.

Five molecules from patent publication US20230340151A1 (Pfizer, published 2023) can be followed below.

One may read the Kd as the free concentration of one partner at which half of the binding sites on the other are occupied at equilibrium, for simple one-to-one binding. As a reminder, the EC50 is the concentration giving half of the maximal effect. For orientation: koff means a measure of how fast the partners let go of each other. In general, kon refers to the second-order rate constant of association.

T1 sequence (P25092 24-430 F281L limits assumed): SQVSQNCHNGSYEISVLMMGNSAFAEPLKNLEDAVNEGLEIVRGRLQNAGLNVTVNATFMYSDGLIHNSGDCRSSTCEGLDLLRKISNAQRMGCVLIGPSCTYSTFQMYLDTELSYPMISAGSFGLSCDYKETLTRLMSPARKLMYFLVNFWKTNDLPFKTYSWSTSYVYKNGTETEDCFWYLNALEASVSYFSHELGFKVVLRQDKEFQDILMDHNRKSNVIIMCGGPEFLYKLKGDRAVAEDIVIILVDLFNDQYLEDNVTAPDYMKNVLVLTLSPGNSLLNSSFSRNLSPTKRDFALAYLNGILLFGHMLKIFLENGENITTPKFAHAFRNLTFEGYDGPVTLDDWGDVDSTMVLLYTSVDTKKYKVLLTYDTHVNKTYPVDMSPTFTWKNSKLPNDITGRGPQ
T2 sequence (P25092 24-430 limits assumed): as the sequence (P25092 24-430 F281L limits assumed) above, with L258F counted along it
Chain of Human GUCY2c on tumor cells (T84, HT55) (P25092 24-1073 limits assumed): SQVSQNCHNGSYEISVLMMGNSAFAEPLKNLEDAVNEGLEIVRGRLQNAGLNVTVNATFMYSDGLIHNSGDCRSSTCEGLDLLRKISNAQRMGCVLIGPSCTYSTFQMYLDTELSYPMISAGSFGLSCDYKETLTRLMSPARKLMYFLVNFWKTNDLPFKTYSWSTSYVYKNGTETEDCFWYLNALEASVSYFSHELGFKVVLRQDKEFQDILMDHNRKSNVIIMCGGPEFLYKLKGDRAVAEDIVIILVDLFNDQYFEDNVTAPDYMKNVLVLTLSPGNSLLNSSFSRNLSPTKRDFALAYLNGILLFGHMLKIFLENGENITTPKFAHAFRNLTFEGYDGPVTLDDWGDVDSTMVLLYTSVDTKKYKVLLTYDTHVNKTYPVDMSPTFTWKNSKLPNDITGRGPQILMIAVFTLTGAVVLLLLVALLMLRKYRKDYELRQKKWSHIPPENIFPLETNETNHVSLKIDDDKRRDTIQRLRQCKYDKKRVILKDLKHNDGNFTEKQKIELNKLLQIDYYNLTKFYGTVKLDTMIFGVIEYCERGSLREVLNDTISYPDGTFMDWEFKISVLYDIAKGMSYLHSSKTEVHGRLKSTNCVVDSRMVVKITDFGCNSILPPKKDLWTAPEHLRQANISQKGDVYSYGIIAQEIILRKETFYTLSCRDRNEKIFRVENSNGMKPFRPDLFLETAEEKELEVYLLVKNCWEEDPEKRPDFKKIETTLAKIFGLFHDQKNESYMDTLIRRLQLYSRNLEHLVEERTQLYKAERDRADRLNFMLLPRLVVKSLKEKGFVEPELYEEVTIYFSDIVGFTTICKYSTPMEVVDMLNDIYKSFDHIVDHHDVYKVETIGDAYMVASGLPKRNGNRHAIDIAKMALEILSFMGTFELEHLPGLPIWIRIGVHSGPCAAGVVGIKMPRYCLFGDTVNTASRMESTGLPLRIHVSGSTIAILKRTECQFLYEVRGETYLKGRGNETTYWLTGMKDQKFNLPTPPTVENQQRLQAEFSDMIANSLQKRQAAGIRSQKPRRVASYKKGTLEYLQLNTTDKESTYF
T7 sequence (chain, as listed by the source limits assumed): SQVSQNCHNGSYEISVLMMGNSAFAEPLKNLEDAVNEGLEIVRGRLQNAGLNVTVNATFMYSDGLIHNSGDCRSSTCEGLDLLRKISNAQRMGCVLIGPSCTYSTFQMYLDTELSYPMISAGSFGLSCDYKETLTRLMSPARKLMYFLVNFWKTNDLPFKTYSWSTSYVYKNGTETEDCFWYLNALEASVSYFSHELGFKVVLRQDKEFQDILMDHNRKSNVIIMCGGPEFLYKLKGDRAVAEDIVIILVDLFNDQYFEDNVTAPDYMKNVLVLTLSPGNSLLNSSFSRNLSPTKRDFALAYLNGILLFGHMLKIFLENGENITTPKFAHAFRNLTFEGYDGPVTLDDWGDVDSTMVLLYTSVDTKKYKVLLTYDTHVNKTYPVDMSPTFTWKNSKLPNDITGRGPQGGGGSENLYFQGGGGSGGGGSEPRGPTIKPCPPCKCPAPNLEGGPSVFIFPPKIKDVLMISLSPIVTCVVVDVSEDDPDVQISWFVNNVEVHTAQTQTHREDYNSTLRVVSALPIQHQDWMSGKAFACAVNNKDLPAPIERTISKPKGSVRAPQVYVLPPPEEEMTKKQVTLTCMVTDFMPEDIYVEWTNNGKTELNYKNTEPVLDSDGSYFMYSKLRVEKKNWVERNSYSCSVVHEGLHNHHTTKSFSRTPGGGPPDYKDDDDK

B1: GUCY2C-0212 (antibody, human IgG1, V domains shown)
VH: EVQLVESGGGLVQPGGSLRLSCAASGYTFTSYWMHWVRQAPGKGLEWIGEIKPSNGLTNYIEKFKNRFTISRDNAKNSLYLQMNSLRAEDTAVYYCARTITTTEGYWFFDVWGQGTLVTVSS
VL: DIQLTQSPSSLSASVGDRVTITCRASESVDYYGTSLMQWYQQKPGKAPKLLIYAASNVESGVPSRFSGSGSGTDFTLTISSLQPEDFATYYCQQTRKVYTFGQGTKLEIK
Turning to B1, the Kd in assay [1] worked out at 26 nM. In [2], the EC50 came to 0.769 nM.

B2: GUCY2C-0486 (antibody, human IgG1, kappa, V domains shown)
VH: B1 VH with Y60V, I61H, R72V, N74K, L79A, A97T
VL: DIQLTQSPSSLSASVGDRVTITCRASESVDYYGSSLLQWYQQKPGKAPKLLIYAASKLASGVPSRFSGSGSGTDFTLTISSLQPEDFATYYCQQTRKAYTFGQGTKLEIKR
As to B2, the Kd in assay [1] was found to be 5.47 nM.

B3: GUCY2C-0210 (antibody, human IgG1, V domains shown)
VH: B1 VH with G49A
VL: B1 VL
Regarding B3, the Kd in assay [1] stood at 85.7 nM. In addition, the EC50 in assay [2] was determined as 8.96 nM.

B4: GUCY2C-0241 (antibody, human IgG1, kappa, V domains shown)
VH: B1 VH with R72V, N74K, L79A, A97T
VL: B2 VL with S34T, L37M, K57N, L58V, A59E, A98V
notes: humanized IgG1; used as scFv on phage in the binary substitution library
Turning to B4, the Kd in assay [1] worked out at 9.81 nM. Besides, in assay [2], the EC50 was 0.161 nM.

B5: GUCY2C-0098 (bispecific antibody)
chain 1: DIVLTQSPASLAVSLGQRATISCRASESVDYYGTSLMQWYQQKPGQPPKLLIYAASNVESGVPARFSGSGSGTDFSLNIHPVEEDDIAMYFCQQTRKVYTFGGGTKLEIKGGGSGGGGEVQLVESGGGLVQPGGSLRLSCAASGFTFSDYYMTWVRQAPGKGLEWVAFIRNRARGYTSDHNPSVKGRFTISRDNAKNSLYLQMNSLRAEDTAVYYCARDRPSYYVLDYWGQGTTVTVSSGCPPCPAPEAAGAPSVFLFPPKPKDTLMISRTPEVTCVVVDVSHEDPEVKFNWYVDGVEVHNAKTKPREEQYNSTYRVVSVLTVLHQDWLNGKEYKCKVSNKALPAPIEKTISKAKGQPREPQVCTLPPSREEMTKNQVSLWCLVKGFYPSDIAVEWESNGQPENNYKTTPPVLDSDGSFFLYSKLTVDKSRWQQGNVFSCSVMHEALHNHYTQKSLSLSPG
chain 2: DIVMTQSPDSLAVSLGERATINCKSSQSLFNVRSRKNYLAWYQQKPGQPPKLLISWASTRESGVPDRFSGSGSGTDFTLTISSLQAEDVAVYYCKQSYDLFTFGSGTKLEIKGGGSGGGGQVQLQQPGAELVKPGASVKLSCKASGYTFTSYWMHWVKQRPGQGLEWIGEIKPSNGLTNYIEKFKNKATLTVDKSATTAYMQLSSLTAEDSAVYYCTRTITTTEGYWFFDVWGAGTTVTVSSGCPPCPAPEAAGAPSVFLFPPKPKDTLMISRTPEVTCVVVDVSHEDPEVKFNWYVDGVEVHNAKTKPREEQYNSTYRVVSVLTVLHQDWLNGKEYKCKVSNKALPAPIEKTISKAKGQPREPQVYTLPPCREEMTKNQVSLSCAVKGFYPSDIAVEWESNGQPENNYKTTPPVLDSDGSFFLVSKLTVDKSRWQQGNVFSCSVMHEALHNHYTQKSLSLSPG
notes: chimeric CD3-GUCY2c diabody-Fc, CD3-0004
In the case of B5, the “T84 tumor cell EC50 (T cell cytotoxicity, E:T 10:1)” value in [3] is 0.41 nM. Also, the EC50 in assay [4] stood at 60.2 nM; in assay [11], 7.24 nM; in assay [21], 186 nM. Besides, the equilibrium dissociation constant (Kd) in assay [5] is 4.96 nM; in [6], 3.93 nM; in assay [7] it was 107 nM; in [8] it was 3.26 nM; in assay [9], 4.75 nM; in [10], 4.94 nM. The dissociation constant (Kd) in assay [12] came out at 7.19 nM; in [13], 15 nM; in assay [14], 2.8 nM; in assay [15], 8.52 nM; in [16] it was 20 nM; in assay [17], 103 nM. The dissociation constant Kd in assay [18] was determined as 3.56 nM; in assay [19], 19.9 nM; in assay [20], 19.3 nM. The koff was 0.000675 s⁻¹ in assay [5]; 0.000524 s⁻¹ in assay [6]; 0.00402 s⁻¹ in [7]; 0.000967 s⁻¹ in [8]; 0.00524 s⁻¹ in assay [9]; 0.00478 s⁻¹ in assay [10]. Further, the koff was determined as 0.00104 s⁻¹ in [12]; 0.00377 s⁻¹ in assay [13]; 0.000577 s⁻¹ in assay [14]; 0.00264 s⁻¹ in [15]; 0.00268 s⁻¹ in assay [16]; 0.0201 s⁻¹ in assay [17]. In addition, the koff in assay [18] came out at 0.00101 s⁻¹; in [19] it was 0.0505 s⁻¹; in assay [20], 0.0442 s⁻¹. Moreover, the kon in assay [5] turned out to be 136000 M⁻¹ s⁻¹; in [6], 134000 M⁻¹ s⁻¹; in assay [7], 37500 M⁻¹ s⁻¹; in assay [8], 297000 M⁻¹ s⁻¹; in [9], 1.1e+06 M⁻¹ s⁻¹; in assay [10], 969000 M⁻¹ s⁻¹. For the same molecule, the kon amounted to 145000 M⁻¹ s⁻¹ in assay [12]; 251000 M⁻¹ s⁻¹ in [13]; 206000 M⁻¹ s⁻¹ in [14]; 310000 M⁻¹ s⁻¹ in assay [15]; 134000 M⁻¹ s⁻¹ in assay [16]; 196000 M⁻¹ s⁻¹ in assay [17]. The kon in [18] turned out to be 284000 M⁻¹ s⁻¹; in [19] it was 2.51e+06 M⁻¹ s⁻¹; in assay [20], 2.28e+06 M⁻¹ s⁻¹.
